Results as given in US20200055958A1.

Molecular target: VEGF-A (human) (UniProt P15692)
Experiment: cell-based or functional assay

VEGF-A (human), sequence (P15692 other isoform, or with tags, fused parts or gaps limits assumed): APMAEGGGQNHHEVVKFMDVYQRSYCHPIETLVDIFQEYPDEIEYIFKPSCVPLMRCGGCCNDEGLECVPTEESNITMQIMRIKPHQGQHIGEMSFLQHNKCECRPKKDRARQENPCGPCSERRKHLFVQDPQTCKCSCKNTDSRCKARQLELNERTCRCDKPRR

IC50, VEGF-dependent HUVEC cell growth assay (MTS): 0.19 nM
Substance: positive control, VEGFR1 ECD D2 and VEGFR2 ECD D3 fused C-terminally with IgG1 Fc fragment (Fc fusion)
